Assay results as given in patent publication WO2014171532A1 (dated 2014).
Changes are numbered by the printed parent chain.

T1: human sTWEAK protein (Peprotech, 310-06) (human, UniProt O43508 97-249)
T1 construct: Bought protein; also called soluble type TWEAK; ヒトsTWEAK
T1 sequence: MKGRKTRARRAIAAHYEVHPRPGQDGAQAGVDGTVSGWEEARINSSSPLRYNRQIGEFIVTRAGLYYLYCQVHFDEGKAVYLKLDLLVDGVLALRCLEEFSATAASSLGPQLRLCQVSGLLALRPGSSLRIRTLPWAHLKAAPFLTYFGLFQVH

T2: human mTWEAK variant expressed on HEK293 cells (human, UniProt O43508 1-249)
T2 construct: also called human mTWEAK mutant; membrane type TWEAK
T2 sequence: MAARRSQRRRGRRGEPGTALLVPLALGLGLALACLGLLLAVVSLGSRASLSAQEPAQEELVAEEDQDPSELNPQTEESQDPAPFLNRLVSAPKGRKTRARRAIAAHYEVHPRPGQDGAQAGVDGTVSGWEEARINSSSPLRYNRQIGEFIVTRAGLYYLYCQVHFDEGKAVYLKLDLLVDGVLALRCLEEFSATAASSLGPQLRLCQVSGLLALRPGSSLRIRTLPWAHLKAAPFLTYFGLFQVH

B1: fully human TBA4-1 (antibody, human IgG1, kappa, V domains shown)
VH: QVQLVESGGGVVQPGRSLRLSCAASGFTFSSYGMHWVRQAPGKGLAWVAIISSDGNNKYYIDSVKGRFTISRDNSKNTLYLQMNNLRAEDTAVYYCAKDSHISIFGAVDSWGQGTLVTVSS
VL: AIQMTQSPSSLSASVGDRVTITCRASQAIRNDLGWYQQKPGKAPKLLIYAASSLQSGVPSRFSGSGSGTDFTLTISSLQPEDFATYYCLQDYNYPWTFGQGTKVEIKR
notes: Human variable regions of TBA4-1 joined to human Ig gamma1 and human kappa constant regions; also called fully human antibody of TBA4-1; 完全ヒト型TBA4-1
B2: fully human TBA3-25 (antibody, human IgG1, kappa, V domains shown)
VH: QVQLVQSGAEVKKPGASVRVSCKVSGYTLIDLSMHWVRQAPGNGLEWMGGFDPENGEKIYAEKFQGRVTMTEDTSTDTAYMDLSSLRSEDTAVYYCASGYSYGHFDYWGQGTLVTVSS
VL: DIQMTQSPSTLSASVGDRVTITCRASQNIGRWLAWYQQKPGKAPNLLIYKASRLESGVPSRFSGSGSGTEFTLTITSLQPDDFATYYCQQYNRYSRTFGQGTKVEIKR
modifications: in most of the purified antibody: N-terminal glutamine (amino acid 1) modified to pyroglutamic acid; C-terminal lysine (amino acid 448) deleted
notes: Human variable regions of TBA3-25 joined to human Ig gamma1 and human kappa constant regions; Analysis of the purified antibody found pyroglutamate at the heavy chain N-terminus and loss of the heavy chain C-terminal lysine in most of it; also called fully human antibody of TBA3-25; 完全ヒト型TBA3-25
B3: fully human TBA3-35.1 (antibody, human IgG1, kappa, V domains shown)
VH: EVQLLESGGGLVQPGGSLRLSCAASGFTFSSYAMSWVRQAPGKGLEWVSAIGNSGFYTHYADSVKGRFTISRDNSKNTLYLQMNSLRAEDTAVYYCAKVGIAVVGDYYQFGMDVWGQGTTVTVSS
VL: B1 VL with A1D, A28G, A50G
B4: TBA4-1 (chimeric antibody) (antibody, V domains shown)
VH: B1 VH
VL: B1 VL

Tests used:
[1] = target: T1, human sTWEAK protein (Peprotech, 310-06); assay: ELISA, sTWEAK immobilised at 0.5 μg/mL, antibody 80 nM to 0.0000003 nM, chemiluminescence
[2] = target: T2, human mTWEAK variant expressed on …; assay: flow cytometry (BD FACSArray) on HEK293 cells transfected with human mTWEAK vector, antibody 80 nM to 0.001355 nM, MFI
[3] = target: T1, human sTWEAK protein (Peprotech, 310-06); assay: hybridoma screening, antigen ELISA on immobilised sTWEAK (Examples 3-6)
[4] = target: T2, human mTWEAK variant expressed on …; assay: hybridoma screening (Examples 3-6)

Binder | binding result [1] | binding result [2] | binding result [3] | binding result [4]
B1 | binds | binds |  | 
B2 | binds | binds |  | 
B3 | binds | binds |  | 
B4 |  |  | binds | binds
